Data published in US20250206836A1.

Biological target: C1q human protein (human) (UniProt P02745)
Experiment: ELISA, plates coated with the antibody, C1q human protein titrated (the concentration axis is that of C1q), Mean Absorbance (OD Units)

C1q human protein (human), sequence (P02745 23-245 limits assumed, chain 1 of 3): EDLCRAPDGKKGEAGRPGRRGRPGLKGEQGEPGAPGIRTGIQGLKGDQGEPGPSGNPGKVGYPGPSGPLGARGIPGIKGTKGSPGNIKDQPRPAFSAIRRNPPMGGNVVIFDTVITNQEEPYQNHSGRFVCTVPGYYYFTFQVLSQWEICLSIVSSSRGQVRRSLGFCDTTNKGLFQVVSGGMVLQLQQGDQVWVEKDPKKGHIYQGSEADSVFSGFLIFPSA
C1q human protein (human), sequence (P02746 28-253 limits assumed, chain 2 of 3, further chain): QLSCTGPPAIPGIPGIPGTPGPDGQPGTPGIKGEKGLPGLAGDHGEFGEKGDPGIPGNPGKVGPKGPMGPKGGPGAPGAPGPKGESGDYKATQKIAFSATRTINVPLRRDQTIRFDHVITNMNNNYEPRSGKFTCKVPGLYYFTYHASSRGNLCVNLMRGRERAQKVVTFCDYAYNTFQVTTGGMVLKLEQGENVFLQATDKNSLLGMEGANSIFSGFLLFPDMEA
C1q human protein (human), sequence (P02747 29-245 limits assumed, chain 3 of 3, further chain): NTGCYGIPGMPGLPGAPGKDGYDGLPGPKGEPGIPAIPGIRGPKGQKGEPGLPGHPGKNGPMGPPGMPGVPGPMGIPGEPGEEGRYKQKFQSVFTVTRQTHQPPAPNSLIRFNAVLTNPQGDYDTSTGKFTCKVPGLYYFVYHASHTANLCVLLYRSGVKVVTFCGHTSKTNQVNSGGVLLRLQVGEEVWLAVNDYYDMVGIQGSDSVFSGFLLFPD

Remicade (pos. control) (antibody)
EC50 (read off the curve): 20 µg/mL
